Measurements from patent CN117545772A (FUSION THERAPEUTICS INC, dated 2024).
Where “and” joins values, the source holds several entries; their conditions need not be identical. Equal values may be shown once.

Legend:
[1] = biological target: T1, 重组人CD123抗原(细胞外结构域，Sino Biological) (human, UniProt P26951 19-305); test: phage ELISA on captured recombinant antigen
T1 construct: Bought; also called 重组的纯化CD123抗原
T1 sequence: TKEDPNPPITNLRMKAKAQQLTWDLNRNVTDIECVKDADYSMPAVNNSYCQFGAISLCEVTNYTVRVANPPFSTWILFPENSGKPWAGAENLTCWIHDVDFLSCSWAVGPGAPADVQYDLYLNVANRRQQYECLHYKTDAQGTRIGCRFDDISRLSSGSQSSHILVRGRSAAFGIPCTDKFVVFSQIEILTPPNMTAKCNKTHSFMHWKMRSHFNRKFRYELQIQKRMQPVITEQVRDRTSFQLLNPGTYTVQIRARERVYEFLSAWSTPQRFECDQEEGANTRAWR

[2] = biological target: T2, 人CD123 (在细胞上表达) (human, UniProt P26951 19-378); test: flow cytometry on the C1R-CD1d cells expressing CD123 used for immunisation
T2 construct: Used for all cells that carry CD123; the cell is named under assay or readout; Expression construct for 293F bought from Invivogen; also called 白介素-3受体α链; 瞬时表达CD123的293F细胞

[3] = biological target: T2, 人CD123 (在细胞上表达); test: cell-based or functional assay

Binder	binding result [1]	binding result [2]	EC50 of T细胞介导的THP-1靶细胞的细胞毒性 (24小时) [3]	THP-1裂解的EC50 (2号供体) [3]	THP-1靶细胞裂解的效力(EC50), THP-1:pDC:Vγ9Vδ2T 1:1:2共培养 [3]	pDC裂解的EC50 (2号供体) [3]	pDC裂解的EC50相对于THP-1裂解的EC50 [3]
抗CD123 VHH 1A3 (VHH, also called 1A3抗体) VHH: EVQLVESGGGLVQAGGSLRLSCAASGRAINTYAMAWFRQAPGKERDFVATISYSGGTTDYAGSVKGRFTISRDNAENTVYLQMNSLKPEDTAVYYCAARDRYNPLARNYNYWGQGTQVTVSS	binds	binds					
1D2-5C8var1(Y105F)-Fc (bispecific antibody, V domains shown) V domain 1: EVQLLESGGGSVQPGGSLRLSCAASGRPFSNYAMSWFRQAPGKEREFVSAISWSGGSTSYADSVKGRFTISRDNSKNTLYLQMNSLRAEDTAVYYCAAQFSGADFGFGRLGIRGYEYDYWGQGTQVTVSS V domain 2: EVQLVESGGGLVQAGGSLRLSCAASGRTASSYVMGWFRQAPGKEREFVAVINWNGDSTYYTDSVKGRFAISRDNAKNTVYLQMNSLKPEDTAVYYCAADTRREWYRDGYWGPPARYEYDYRGQGTQVTVSS			1 pM and 3 pM	1 pM	~1 pM	11 pM	~10 fold
